Results on eleven substances are retold here after patent US20240132578A1.

What all share (assay): cell-based or functional assay
For experiment [1], the target named is HIV-1 Env of pseudovirus CAAN (HIV-1).
In experiment [2] the target is HIV-1 Env of isolate MG RM-D-018 (subtype D) (HIV-1).
In experiment [3] the target is HIV-1 Env of isolate MG RM-D-021 (subtype D) (HIV-1).
Experiment [4] deals with HIV-1 Env of isolate MGRM-F1-008 (subtype F) (HIV-1).
For experiment [5], the target named is HIV-1 envelope glycoprotein (Env) of isolate 92UG037 (HIV-1).
Experiment [6] deals with HIV-1 Env of isolate 92UG005 (subtype D) (HIV-1).
Experiment [7] has as its target HIV-1 Env of isolate MGRM-Chronic-B-001 (subtype B), on pseudovirus (HIV-1).
Experiment [8] concerns the target HIV-1 MGRM-A-010 envelope glycoprotein (Env), clade A pseudovirus (HIV-1).
Experiment [9] addresses HIV-1 92UG005 envelope glycoprotein (Env), clade D pseudovirus (HIV-1).
For experiment [10], the target named is HIV-1 APV6 envelope glycoprotein (Env), clade B pseudovirus (HIV-1).
In experiment [11] the target is HIV-1 92UG024 envelope glycoprotein (Env), clade D pseudovirus (HIV-1).
Experiment [12] concerns the target HIV-1 MGRM-AG-005 envelope glycoprotein (Env), clade AG pseudovirus (HIV-1).
In experiment [13] the target is HIV-1 envelope glycoprotein (Env) of isolate APV17 (HIV-1).
In experiment [14] the target is HIV-1 envelope glycoprotein (Env) of isolate MGRM-C-027 (HIV-1).
Experiment [15] addresses HIV-1 envelope glycoprotein (Env) of isolate MGRM-D-018 (HIV-1).
For experiment [16], the target named is HIV-1 APV13 Env (HIV-1 isolate APV13 (clade B)).
Experiment [17] has as its target HIV-1 JRFL Env (HIV-1 isolate JRFL (clade B)).
The target in experiment [18] is HIV-1 APV17 Env (HIV-1 isolate APV17 (clade B)).
Experiment [19] addresses HIV-1 MGRM-D-018 Env (HIV-1 isolate MGRM-D-018 (clade D)).
Experiment [20] concerns the target HIV-1 APV6 envelope glycoprotein (Env) (HIV-1).
The target in experiment [21] is HIV-1 MGRM-C-026 envelope glycoprotein (Env) (HIV-1).
The target of experiment [22] is HIV-1 JR-CSF Env R304A (HIV-1 (isolate JR-CSF, clade B)) (UniProt P20871).
The target in experiment [23] is aMLV envelope protein on pseudovirus (control virus).
In experiment [24] the target is HIV-1 MGRM-D-018 Env (pseudovirus) (HIV-1).
In experiment [25] the target is HIV-1 APV6 Env (pseudovirus) (HIV-1).
Experiment [26] concerns the target HIV-1 MGRM-A-010 Env (pseudovirus) (HIV-1).
The target in experiment [27] is aMLV envelope (negative control pseudovirus).
Experiment [28] deals with HIV-1 JRCSF Env (pseudovirus) (HIV-1) (UniProt P20871).
Experiment [29] has as its target HIV-1 MGRM-C-027 envelope glycoprotein (Env) on virus (HIV-1, clade C, isolate MGRM-C-027).
For experiment [30], the target named is HIV-1 MGRM-A-010 envelope glycoprotein (Env) on virus (HIV-1, clade A, isolate MGRM-A-010).
The target in experiment [31] is HIV-1 Env of isolate 92UG024 (clade D) (HIV-1).

Chain of 5329_C19 (PGT-136) (antibody) (VH): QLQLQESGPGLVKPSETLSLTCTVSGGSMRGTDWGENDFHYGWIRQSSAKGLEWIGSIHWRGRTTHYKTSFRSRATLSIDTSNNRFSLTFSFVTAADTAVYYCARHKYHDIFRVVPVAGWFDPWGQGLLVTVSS
Chain of 5329_C19 (PGT-136) (antibody) (VL): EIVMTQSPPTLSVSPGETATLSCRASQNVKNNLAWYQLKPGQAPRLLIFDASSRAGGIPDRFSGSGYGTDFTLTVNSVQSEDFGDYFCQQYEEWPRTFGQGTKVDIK
Chain of 1443_C16 (PG16) (TCN-116) (antibody) (VH): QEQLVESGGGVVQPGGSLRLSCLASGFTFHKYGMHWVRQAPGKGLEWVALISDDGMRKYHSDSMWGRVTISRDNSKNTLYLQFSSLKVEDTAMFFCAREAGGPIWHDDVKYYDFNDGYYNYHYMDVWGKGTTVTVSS
Chain of 1443_C16 (PG16) (TCN-116) (antibody) (VL): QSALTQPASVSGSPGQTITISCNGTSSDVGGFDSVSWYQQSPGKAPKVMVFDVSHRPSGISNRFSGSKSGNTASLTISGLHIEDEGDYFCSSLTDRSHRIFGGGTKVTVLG

1443_C16 (PG16) (TCN-116) (antibody) showed an IC50, pseudovirus neutralization (TZM-bl assay) in experiment [1] of 6.37 µg/mL.
What is called IC50 is the midpoint of a concentration-inhibition curve. A lower IC50 goes with greater potency. Regarding PGV04 (antibody), the IC50 (µg/mL), pseudovirus neutralization in [2] is 17.5 µg/mL; in experiment [3], above 50 µg/mL; in [4] it was 1.03 µg/mL; in experiment [6], 0.44 µg/mL. Besides, in experiment [5], the IC50 stood at 0.145 µg/mL. This substance also had an IC50, single-round pseudovirus neutralization in experiment [7] of 0.048 µg/mL.
4858_P08 (PGT-123) (antibody): the IC50, pseudovirus neutralization is 0.492 µg/mL in experiment [8]; 2.49 µg/mL in experiment [9]; 0.0328 µg/mL in experiment [10]; above 10 µg/mL in experiment [11]; 0.104 µg/mL in [12]. For the same substance, the IC80 (pseudovirus neutralization) is 2.79 µg/mL in experiment [8]; above 10 µg/mL in experiment [9]; 0.145 µg/mL in [10]; above 10 µg/mL in experiment [11]; 1.28 µg/mL in [12]. In addition, the IC90 (pseudovirus neutralization) in [8] was 6.44 µg/mL; in [9] it was above 10 µg/mL; in experiment [10], 0.339 µg/mL; in [11], above 10 µg/mL; in experiment [12], 6.38 µg/mL. Further, the IC95 (pseudovirus neutralization) was above 10 µg/mL in [8]; above 10 µg/mL in experiment [9]; 0.726 µg/mL in experiment [10]; above 10 µg/mL in experiment [11]; above 10 µg/mL in [12].
In experiment [13], 5141_B17 (PGT-126) (antibody) yielded a Neutralization IC80 of 4.43 µg/mL, a Neutralization IC90 above 10 µg/mL, a Neutralization IC95 above 10 µg/mL and a neutralization IC50 of 0.501 µg/mL. Further, in experiment [14], the Neutralization IC80 is above 10 µg/mL, the Neutralization IC90 was above 10 µg/mL, the Neutralization IC95 is above 10 µg/mL and the neutralization IC50 turned out to be 1.14 µg/mL. Besides, in [15], the Neutralization IC80 worked out at 0.0391 µg/mL, the Neutralization IC90 is 0.0918 µg/mL, the Neutralization IC95 was found to be 0.205 µg/mL and the neutralization IC50 is 0.0093 µg/mL.
4838_L06 (PGT-121) (antibody): the Neutralization IC80 turned out to be 1.31 µg/mL in experiment [16], 0.0806 µg/mL in experiment [17], 0.371 µg/mL in experiment [18] and 0.0231 µg/mL in experiment [19]. Moreover, the Neutralization IC90 in experiment [16] came to 2.8 µg/mL; in experiment [17], 0.151 µg/mL; in experiment [18], 0.799 µg/mL; in experiment [19], 0.0414 µg/mL. Moreover, the Neutralization IC95 in [16] was 5.15 µg/mL; in [17] it was 0.267 µg/mL; in [18] it was 1.55 µg/mL; in experiment [19], 0.0715 µg/mL.
5329_C19 (PGT-136) (antibody): in experiment [20], the Neutralization IC80 is above 10 µg/mL, the Neutralization IC90 was above 10 µg/mL, the Neutralization IC95 is above 10 µg/mL and the neutralization IC50 was above 10 µg/mL. In experiment [21], the Neutralization IC80 turned out to be 0.0285 µg/mL, the Neutralization IC90 was 0.0687 µg/mL, the Neutralization IC95 stood at 0.159 µg/mL and the neutralization IC50 amounted to 0.0065 µg/mL.
Substance 5145_B14 (PGT-127) (antibody) had a Fold IC50 increase relative to wild-type in [22] of 0.4 fold.
In experiment [23], 5343_B08 (PGT-135) (antibody) showed a Neutralization IC80 above 10 µg/mL, a Neutralization IC90 above 10 µg/mL, a Neutralization IC95 above 10 µg/mL and a neutralization IC50 above 10 µg/mL.
As for 5123_A06 (PGT-125) (antibody), the Neutralization by PGT-125, IC50 in [24] was 0.0382 µg/mL; in experiment [25] it was 0.0359 µg/mL; in experiment [26], 0.0055 µg/mL; in [27], above 10 µg/mL; in [28] it was 0.006 µg/mL. Besides, the Neutralization by PGT-125, IC80 is 0.144 µg/mL in experiment [24]; 0.133 µg/mL in experiment [25]; 0.024 µg/mL in experiment [26]; above 10 µg/mL in [27]; 0.0196 µg/mL in experiment [28]. Moreover, the Neutralization by PGT-125, IC90 in experiment [24] was 0.339 µg/mL; in experiment [25] it was 0.288 µg/mL; in [26], 0.0575 µg/mL; in experiment [27], above 10 µg/mL; in experiment [28], 0.0392 µg/mL. In addition, the Neutralization by PGT-125, IC95 is 0.892 µg/mL in [24]; 0.597 µg/mL in [25]; 0.131 µg/mL in experiment [26]; above 10 µg/mL in [27]; 0.0741 µg/mL in [28].
Take 4877_D15 (PGT-122) (antibody): in experiment [29], the Neutralization IC80 was found to be 0.499 µg/mL, the Neutralization IC90 was above 10 µg/mL, the Neutralization IC95 is above 10 µg/mL and the neutralization IC50 is 0.0388 µg/mL. In experiment [30], this substance came in with a Neutralization IC80 above 10 µg/mL, a Neutralization IC90 above 10 µg/mL, a Neutralization IC95 above 10 µg/mL and a neutralization IC50 of 1.68 µg/mL.
In experiment [31], 1496_C09 (PG9) (TCN-109) (antibody) registered a neutralization IC50 of 1.91 µg/mL.
